From patent US20160058880

B1: CD10 (recombinant human neprilysin, R&D systems, Ref 1182-ZN) (protein)
chain: DDGICKSSDCIKSAARLIQNMDATTEPCTDFFKYACGGWLKRNVIPETSSRYGNFDILRDELEVVLKDVLQEPKTEDIVAVQKAKALYRSCINESAIDSRGGEPLLKLLPDIYGWPVATENWEQKYGASWTAEKAIAQLNSKYGKKVLINLFVGTDDKNSVNHVIHIDQPRLGLPSRDYYECTGIYKEACTAYVDFMISVARLIRQEERLPIDENQLALEMNKVMELEKEIANATAKPEDRNDPMLLYNKMTLAQIQNNFSLEINGKPFSWLNFTNEIMSTVNISITNEEDVVVYAPEYLTKLKPILTKYSARDLQNLMSWRFIMDLVSSLSRTYKESRNAFRKALYGTTSETATWRRCANYVNGNMENAVGRLYVEAAFAGESKHVVEDLIAQIREVFIQTLDDLTWMDAETKKRAEEKALAIKERIGYPDDIVSNDNKLNNEYLELNYKEDEYFENIIQNLKFSQSKQLKKLREKVDKDEWISGAAVVNAFYSSGRNQIVFPAGILQPPFFSAQQSNSLNYGGIGMVIGHEITHGFDDNGRNFNKDGDLVDWWTQQSASNFKEQSQCMVYQYGNFSWDLAGGQHLNGINTLGENIADNGGLGQAYRAYQNYIKKNGEEKLLPGLDLNHKQLFFLNFAQVWCGTYRPEYAVNSIKTDVHSPGNFRIIGTLQNSAEFSEAFHCRKNSYMNPEKKCRVW
B2: CD26 (protein)
chain: SRKTYTLTDYLKNTYRLKLYSLRWISDHEYLYKQENNILVFNAEYGNSSVFLENSTFDEFGHSINDYSISPDGQFILLEYNYVKQWRHSYTASYDIYDLNKRQLITEERIPNNTQWVTWSPVGHKLAYVWNNDIYVKIEPNLPSYRITWTGKEDIIYNGITDWVYEEEVFSAYSALWWSPNGTFLAYAQFNDTEVPLIEYSFYSDESLQYPKTVRVPYPKAGAVNPTVKFFVVNTDSLSSVTNATSIQITAPASMLIGDHYLCDVTWATQERISLQWLRRIQNYSVMDICDYDESSGRWNCLVARQHIEMSTTGWVGRFRPSEPHFTLDGNSFYKIISNEEGYRHICYFQIDKKDCTFITKGTWEVIGIEALTSDYLYYISNEYKGMPGGRNLYKIQLSDYTKVTCLSCELNPERCQYYSVSFSKEAKYYQLRCSGPGLPLYTLHSSVNDKGLRVLEDNSALDKMLQNVQMPSKKLDFIILNETKFWYQMILPPHFDKSKKYPLLLDVYAGPCSQKADTVFRLNWATYLASTENIIVASFDGRGSGYQGDKIMHAINRRLGTFEVEDQIEAARQFSKMGFVDNKRIAIWGWSYGGYVTSMVLGSGSGVFKCGIAVAPVSRWEYYDSVYTERYMGLPTPEDNLDHYRNSTVMSRAENFKQVEYLLIHGTADDNVHFQQSAQISKALVDVGVDFQAMWYTDEDHGIASSTAHQHIYTHMSHFIKQCFSLP

Columns and labels:
PhAc-KLGP-doxorubicin = target: T1, PhAc-KLGP-doxorubicin
T1 chain: KLGP

PhAc-ALGP-doxorubicin = target: T2, PhAc-ALGP-doxorubicin
T2 chain: ALGP

PhAc-ALAF-doxorubicin = target: T3, PhAc-ALAF-doxorubicin
T3 chain: ALAF

[1] = target: T4, Succinyl-βALPF-doxorubicin
T4 chain: ALPF

LGP-Dox = target: T5, LGP-Dox
T5 chain: LGP

PhAc-GPGP-doxorubicin = target: T6, PhAc-GPGP-doxorubicin
T6 chain: GPGP

PhAc-AIGP-doxorubicin = target: T7, PhAc-AIGP-doxorubicin
T7 chain: AIGP

PhAc-ALPF-doxorubicin = target: T8, PhAc-ALPF-doxorubicin
T8 chain: ALPF

PhAc-ALAL-doxorubicin = target: T9, PhAc-ALAL-doxorubicin
T9 chain: ALAL

PhAc-TSGP-doxorubicin = target: T10, PhAc-TSGP-doxorubicin
T10 chain: TSGP

[2] = target: T11, N-succinyl-beta-alanyl-L-leucyl-L-alanyl-L-leucyl-doxorubicin
T11 chain: ALAL

PhAc-DLGP-doxorubicin = target: T12, PhAc-DLGP-doxorubicin
T12 chain: DLGP

NH2-Gly-Pro-Doxorubicin = target: T13, NH2-Gly-Pro-Doxorubicin
T13 chain: GP

Protein	cleavage by purified CD10 10 nM (grade; * = less than 5% of metabolites detected) (PhAc-KLGP-doxorubicin)	cleavage by purified CD10 10 nM (grade) (PhAc-ALGP-doxorubicin)	cleavage by purified CD10 10 nM (grade) (PhAc-ALAF-doxorubicin)	cleavage by purified CD10 10 nM (grade; * = less than 5% of metabolites detected) [1]	cleavage by purified CD10 10 nM (grade) (LGP-Dox)	cleavage by purified CD10 10 nM (grade) (PhAc-GPGP-doxorubicin)	cleavage by purified CD10 10 nM (grade) (PhAc-AIGP-doxorubicin)	cleavage by purified CD10 10 nM (grade) (PhAc-ALPF-doxorubicin)	cleavage by purified CD10 10 nM (grade; * = less than 5% of metabolites detected) (PhAc-ALAL-doxorubicin)	cleavage by purified CD10 10 nM (grade) (PhAc-TSGP-doxorubicin)	cleavage by purified CD10 10 nM (grade) [2]	cleavage by purified CD10 10 nM (grade) (PhAc-DLGP-doxorubicin)	hydrolysis by purified CD26 (PhAc-ALGP-doxorubicin)	conversion to Dox after 3 h incubation at 37° C. with purified CD26 (NH2-Gly-Pro-Doxorubicin)	hydrolysis by purified CD26 (LGP-Dox)	hydrolysis by purified CD26 [2]
B1	-*	+	+	-*	-	-	+	-	-*	-	+	-				
B2													Neither CD26 nor FAP hydrolized either PhAc-ALGP-Dox, Suc-βALAL-Dox or LGP-Dox	97% conversion to Dox after 3 h incubation at 37 °C	Neither CD26 nor FAP hydrolized either PhAc-ALGP-Dox, Suc-βALAL-Dox or LGP-Dox	Neither CD26 nor FAP hydrolized either PhAc-ALGP-Dox, Suc-βALAL-Dox or LGP-Dox
